Data: article PMC10482962, “Structural and functional analysis of aquaporin-2 mutants involved in nephrogenic diabetes insipidus” (Scientific Reports, 2023)
Positions count from the first letter of the chain named. In names and notes the source's numbering stands.

B1: human aquaporin-2 (AQP2), truncated after residue 242 (domain or fragment, UniProt P41181 1-242, looked up)
chain: MWELRSIAFSRAVFAEFLATLLFVFFGLGSALNWPQALPSVLQIAMAFGLGIGTLVQALGHISGAHINPAVTVACLVGCHVSVLRAAFYVAAQLLGAVAGAALLHEITPADIRGDLAVNALSNSTTAGQAVTVELFLTLQLVLCIFASTDERRGENPGTPALSIGFSVALGHLLGIHYTGCSMNPARSLAPAVVTGKFDDHWVFWIGPLVGAILGSLLYNYVLFPPAKSLSERLAVLKGLEP
notes: aquaporin-2 (AQP2), human, C-terminal truncation at P242; the construct used for the structure PDB 4NEF; His-tag removed by TEV protease before SEC; also called wild-type AQP2; hAQP2; source: Pichia pastoris X33, purified (IMAC, TEV cleavage, second IMAC, SEC); not shown: His8, N-terminal, cleaved
B2: human aquaporin-2 (AQP2) T125M, truncated after residue 242 (domain or fragment, UniProt P41181 1-242, looked up)
chain: B1 chain with T125M
notes: aquaporin-2 (AQP2), human, C-terminal truncation at P242, with the recessive NDI patient mutation T125M; Mutation identified in patients with autosomal recessive NDI; same construct limits as m1; source: Pichia pastoris X33, purified (IMAC, TEV cleavage, second IMAC, SEC); not shown: His8, N-terminal, cleaved
B3: aquaporin-2 (AQP2): T125M (protein)
parent chain: MWELRSIAFSRAVFAEFLATLLFVFFGLGSALNWPQALPSVLQIAMAFGLGIGTLVQALGHISGAHINPAVTVACLVGCHVSVLRAAFYVAAQLLGAVAGAALLHEITPADIRGDLAVNALSNSTTAGQAVTVELFLTLQLVLCIFASTDERRGENPGTPALSIGFSVALGHLLGIHYTGCSMNPARSLAPAVVTGKFDDHWVFWIGPLVGAILGSLLYNYVLFPPAKSLSERLAVLKGLEPDTDWEEREVRRRQSVELHSPQSLPRGTKA

Experiments:
[1] = target: the molecule itself; experiment: SEC; size-exclusion chromatography of the purified protein immediately prior to reconstitution into liposomes; peak integrals quantified in % of the total population to estimate the oligomeric states
[2] = size-exclusion chromatography; conditions: glycan lost; control: wild-type AQP2 (same construct)

Protein | stoichiometry N [1] | oligomerisation [2]
B1 | 4 | 
B2 | 4 | 
B3 |  | no change
